The source of these data is paper PMC9888213, “The Mobility of the Cap Domain Is Essential for the Substrate Promiscuity of a Family IV Esterase from Sorghum Rhizosphere Microbiome” (Applied and Environmental Microbiology, 2023).

Assay in all cases: purified protein
Common to all, as to format: biochemical, uncultured Sphingomonas sp.

Series [1] relates to T1, CC(=O)Oc1ccc([N+](=O)[O-])cc1.
T1 construct: full length, 324 residues, N-terminal His6 tag (p15TV-L), expressed in E. coli BL21(DE3), Ni-NTA purified; homodimer
The conditions noted are these: 50 mM potassium phosphate pH 7.0, 0.3% Triton X-100, 30 °C, up to 5% DMSO-acetonitrile.

Series [2] relates to T2, CCCC(=O)Oc1ccc([N+](=O)[O-])cc1.
T2 construct: full length, 324 residues, N-terminal His6 tag (p15TV-L), expressed in E. coli BL21(DE3), Ni-NTA purified; homodimer
The conditions noted are these: 50 mM potassium phosphate pH 7.0, 0.3% Triton X-100, 30 °C, up to 5% DMSO-acetonitrile.

Series [3] relates to T3, CCCCCCCCCCCC(=O)Oc1ccc([N+](=O)[O-])cc1.
T3 construct: full length, 324 residues, N-terminal His6 tag (p15TV-L), expressed in E. coli BL21(DE3), Ni-NTA purified; homodimer
The conditions noted are these: 50 mM potassium phosphate pH 7.0, 0.3% Triton X-100, 30 °C, up to 7.5% DMSO-acetonitrile.

As to EH0 (uncultured Sphingomonas sp.), in series [1], the Michaelis-Menten constant (Km) is 1610 ± 120 µM, the maximal velocity (Vmax) stood at 292 µM/min, the kcat turned out to be 0.694 ± 0.0182 s⁻¹ and the kcat/Km worked out at 430 M⁻¹ s⁻¹. Besides, in series [2], the Michaelis constant (Km) was 1080 ± 180 µM, the maximal velocity (Vmax) was found to be 253 µM/min, the turnover number (kcat) came to 0.602 ± 0.033 s⁻¹ and the specificity constant (kcat/Km) turned out to be 558 M⁻¹ s⁻¹. Further, in series [3], the Km was 1000 ± 280 µM, the Vmax amounted to 25.6 µM/min, the kcat is 0.0608 ± 0.00433 s⁻¹ and the catalytic efficiency (kcat/Km) was 61 M⁻¹ s⁻¹.
